Publication PMC10684670

B1: rhB7-H6-hFc recombinant protein, wild type [modified: N-linked glycans (removed on the plate by PNGase F in assay a2); N-linked glycans (removed on the plate by PNGase F in assay a2)] [human] / rhNKp30-his protein [human] (parent)
chain 1: LWVSQPPEIRTLEGSSAFLPCSFNASQGRLAIGSVTWFRDEVVPGKEVRNGTPEFRGRLAPLASSRFLHDHQAELHIRDVRGHDASIYVCRVEVLGLGVGTGNGTRLVVEKEHPQLG
chain 2: DLKVEMMAGGTQITPLNDNVTIFCNIFYSQPLNITSMGITWFWKSLTFDKEVKVFEFFGDHQEAFRPGAIVSPWRLKSGDASLRLPGIQLEEAGEYRCEVVVTPLKAQGTVQLEVVASPASRLLLDQVGMKENEDKYMCESSGFYPEAINITWEKQTQKFPHPIEISEDVITGPTIKNMDGTFNVTSCLKLNSSQEDPGTVYQCVVRHASLHTPLRSNFTLTAARHSLSETEKTDNFS
B2: B7-H6, wild type, stably expressed on B7-H6 knockout 293T cells [modified: N-linked glycans at N43, N57, N174, N208, N216 and N242; N-linked glycans at N43, N57, N174, N208, N216 and N242] [human] / rhNKp30-his protein [human] (parent)
chain 1: B1 chain 1
chain 2: DLKVEMMAGGTQITPLNDNVTIFCNIFYSQPLNITSMGITWFWKSLTFDKEVKVFEFFGDHQEAFRPGAIVSPWRLKSGDASLRLPGIQLEEAGEYRCEVVVTPLKAQGTVQLEVVASPASRLLLDQVGMKENEDKYMCESSGFYPEAINITWEKQTQKFPHPIEISEDVITGPTIKNMDGTFNVTSCLKLNSSQEDPGTVYQCVVRHASLHTPLRSNFTLTAARHSLSETEKTDNFSIHWWPISFIGVGLVLLIVLIPWKKICNKSSSAYTPLKCILKHWNSFDTQTLKKEHLIFFCTRAWPSYQLQDGEAWPPEGSVNINTIQQLDVFCRQEGKWSEVPYVQAFFALRDNPDLCQCCRIDPALLTVTSGKSIDDNSTKSEKQTPREHSDAVPDAPILPVSPIWEPPPATTSTTPVLSSQPPTLLLPLQ

Variants of: B1
Experiment: ELISA
Settings: with rhNKp30-his protein [human]; no PNGase F pretreatment; read at the highest NKp30 conc. tested, 2 (unit not printed in this panel); parent: 1.7; read off a plot

| response [OD] | Variant |
| --- | --- |
| 1.5 | chain 2 DLKVEMMAGGTQITPLNDNVTIFCNIFYSQPLQITSMGITWFWKSLTFDKEVKVFEFFGDHQEAFRPGAIVSPWRLKSGDASLRLPGIQLEEAGEYRCEVVVTPLKAQGTVQLEVVASPASRLLLDQVGMKENEDKYMCESSGFYPEAINITWEKQTQKFPHPIEISEDVITGPTIKNMDGTFNVTSCLKLNSSQEDPGTVYQCVVRHASLHTPLRSNFTLTAARHSLSETEKTDNFS [chain 2 N33Q] |

Same assay, conditions: with rhNKp30-his protein [human]; pretreated with denatured PNGase F; read at the highest NKp30 conc. tested, 2 (unit not printed in this panel); read off a plot

| response [OD] | Variant |
| --- | --- |
| 1.4 | chain 2 DLKVEMMAGGTQITPLNDNVTIFCNIFYSQPLQITSMGITWFWKSLTFDKEVKVFEFFGDHQEAFRPGAIVSPWRLKSGDASLRLPGIQLEEAGEYRCEVVVTPLKAQGTVQLEVVASPASRLLLDQVGMKENEDKYMCESSGFYPEAINITWEKQTQKFPHPIEISEDVITGPTIKNMDGTFNVTSCLKLNSSQEDPGTVYQCVVRHASLHTPLRSNFTLTAARHSLSETEKTDNFS [chain 2 N33Q] |

Variants of: B2
Experiment: flow cytometry on cells
Settings: with rhNKp30-his protein [human]; 293T cells stably expressing B7-H6, stained with his-tagged NKp30; parent: 1; read off a plot

| Variant | ratio to parent |
| --- | --- |
| chain 2 DLKVEMMAGGTQITPLNDQVTIFCNIFYSQPLNITSMGITWFWKSLTFDKEVKVFEFFGDHQEAFRPGAIVSPWRLKSGDASLRLPGIQLEEAGEYRCEVVVTPLKAQGTVQLEVVASPASRLLLDQVGMKENEDKYMCESSGFYPEAINITWEKQTQKFPHPIEISEDVITGPTIKNMDGTFNVTSCLKLNSSQEDPGTVYQCVVRHASLHTPLRSNFTLTAARHSLSETEKTDNFSIHWWPISFIGVGLVLLIVLIPWKKICNKSSSAYTPLKCILKHWNSFDTQTLKKEHLIFFCTRAWPSYQLQDGEAWPPEGSVNINTIQQLDVFCRQEGKWSEVPYVQAFFALRDNPDLCQCCRIDPALLTVTSGKSIDDNSTKSEKQTPREHSDAVPDAPILPVSPIWEPPPATTSTTPVLSSQPPTLLLPLQ [chain 2 N19Q] | 0.14 |
| chain 2 DLKVEMMAGGTQITPLNDNVTIFCNIFYSQPLNITSMGITWFWKSLTFDKEVKVFEFFGDHQEAFRPGAIVSPWRLKSGDASLRLPGIQLEEAGEYRCEVVVTPLKAQGTVQLEVVASPASRLLLDQVGMKENEDKYMCESSGFYPEAIQITWEKQTQKFPHPIEISEDVITGPTIKNMDGTFNVTSCLKLNSSQEDPGTVYQCVVRHASLHTPLRSNFTLTAARHSLSETEKTDNFSIHWWPISFIGVGLVLLIVLIPWKKICNKSSSAYTPLKCILKHWNSFDTQTLKKEHLIFFCTRAWPSYQLQDGEAWPPEGSVNINTIQQLDVFCRQEGKWSEVPYVQAFFALRDNPDLCQCCRIDPALLTVTSGKSIDDNSTKSEKQTPREHSDAVPDAPILPVSPIWEPPPATTSTTPVLSSQPPTLLLPLQ [chain 2 N150Q] | 0.8 |
| chain 2 DLKVEMMAGGTQITPLNDNVTIFCNIFYSQPLQITSMGITWFWKSLTFDKEVKVFEFFGDHQEAFRPGAIVSPWRLKSGDASLRLPGIQLEEAGEYRCEVVVTPLKAQGTVQLEVVASPASRLLLDQVGMKENEDKYMCESSGFYPEAINITWEKQTQKFPHPIEISEDVITGPTIKNMDGTFNVTSCLKLNSSQEDPGTVYQCVVRHASLHTPLRSNFTLTAARHSLSETEKTDNFSIHWWPISFIGVGLVLLIVLIPWKKICNKSSSAYTPLKCILKHWNSFDTQTLKKEHLIFFCTRAWPSYQLQDGEAWPPEGSVNINTIQQLDVFCRQEGKWSEVPYVQAFFALRDNPDLCQCCRIDPALLTVTSGKSIDDNSTKSEKQTPREHSDAVPDAPILPVSPIWEPPPATTSTTPVLSSQPPTLLLPLQ [chain 2 N33Q] | 0.57 |

The remaining lines, values ahead:

| ratio to parent | Variant |
| --- | --- |
| 0.86 | chain 2 DLKVEMMAGGTQITPLNDNVTIFCNIFYSQPLNITSMGITWFWKSLTFDKEVKVFEFFGDHQEAFRPGAIVSPWRLKSGDASLRLPGIQLEEAGEYRCEVVVTPLKAQGTVQLEVVASPASRLLLDQVGMKENEDKYMCESSGFYPEAINITWEKQTQKFPHPIEISEDVITGPTIKNMDGTFNVTSCLKLNSSQEDPGTVYQCVVRHASLHTPLRSQFTLTAARHSLSETEKTDNFSIHWWPISFIGVGLVLLIVLIPWKKICNKSSSAYTPLKCILKHWNSFDTQTLKKEHLIFFCTRAWPSYQLQDGEAWPPEGSVNINTIQQLDVFCRQEGKWSEVPYVQAFFALRDNPDLCQCCRIDPALLTVTSGKSIDDNSTKSEKQTPREHSDAVPDAPILPVSPIWEPPPATTSTTPVLSSQPPTLLLPLQ [chain 2 N218Q] |
| 0.42 | chain 2 DLKVEMMAGGTQITPLNDNVTIFCNIFYSQPLNITSMGITWFWKSLTFDKEVKVFEFFGDHQEAFRPGAIVSPWRLKSGDASLRLPGIQLEEAGEYRCEVVVTPLKAQGTVQLEVVASPASRLLLDQVGMKENEDKYMCESSGFYPEAINITWEKQTQKFPHPIEISEDVITGPTIKNMDGTFNVTSCLKLQSSQEDPGTVYQCVVRHASLHTPLRSNFTLTAARHSLSETEKTDNFSIHWWPISFIGVGLVLLIVLIPWKKICNKSSSAYTPLKCILKHWNSFDTQTLKKEHLIFFCTRAWPSYQLQDGEAWPPEGSVNINTIQQLDVFCRQEGKWSEVPYVQAFFALRDNPDLCQCCRIDPALLTVTSGKSIDDNSTKSEKQTPREHSDAVPDAPILPVSPIWEPPPATTSTTPVLSSQPPTLLLPLQ [chain 2 N192Q] |
| 0.22 | chain 2 DLKVEMMAGGTQITPLNDNVTIFCNIFYSQPLNITSMGITWFWKSLTFDKEVKVFEFFGDHQEAFRPGAIVSPWRLKSGDASLRLPGIQLEEAGEYRCEVVVTPLKAQGTVQLEVVASPASRLLLDQVGMKENEDKYMCESSGFYPEAINITWEKQTQKFPHPIEISEDVITGPTIKNMDGTFQVTSCLKLNSSQEDPGTVYQCVVRHASLHTPLRSNFTLTAARHSLSETEKTDNFSIHWWPISFIGVGLVLLIVLIPWKKICNKSSSAYTPLKCILKHWNSFDTQTLKKEHLIFFCTRAWPSYQLQDGEAWPPEGSVNINTIQQLDVFCRQEGKWSEVPYVQAFFALRDNPDLCQCCRIDPALLTVTSGKSIDDNSTKSEKQTPREHSDAVPDAPILPVSPIWEPPPATTSTTPVLSSQPPTLLLPLQ [chain 2 N184Q] |
